The supplement of paper PMC12042874
± gives the uncertainty stated by the source.

Assay: amyloid nucleation score (Sup35N fusion, yeast selection) (log enrichment); library NNK1; higher = more nucleation; inactive = no reads after selection
Method in brief: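 Sup35N fusions to peptides of 20 random codons were expressed in psi-negative yeast, induced 24 hours with 100 μM copper sulfate, and grown 7 days at 30°C on medium lacking adenine and uracil. Input and output plasmid inserts were sequenced by Illumina. The nucleation score is the DiMSum log enrichment of output over input reads, centred on the mode score of non-aggregating sequences. Sequences with under 100 input reads were excluded.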

Substance | amyloid nucleation score
IGACVMQVNLCQSSGVSSYL | 5.72 ± 0.062
NHYCRFHFTLESFLAGHVAN | 1.38 ± 0.23
DYTILYVVWILCGIKMSVVI | 0.699 ± 0.66
YRLRQPLPSERSLMEHSCGV | 0.761 ± 0.56
MCVILVELYQRGSWYTRKVM | -0.206 ± 1.1
RHTGPIMLSWDAKGRGK | 0.622 ± 0.44
GDCFFQSYDTVFNFASR | 2.24 ± 0.2
EIGYMGLSVSIFRCVWLFIF | 0.056 ± 0.34
FNDFSLSYARFCINSMNRYP | 0.968 ± 0.13
YIMILYRKGMFILRVFSLLL | -0.293 ± 0.24
CQVPGSRRHRRSIRERQNWN | 1.32 ± 0.62
KRLWLKLSTVE | 0.32 ± 0.32
QGLSYFDCSDWLNYLFFKSY | 0.126 ± 0.27
YSDPYAKWNDQR | 0.784 ± 0.76
AQYELLMQRNWYVGKDLVRG | -0.192 ± 0.42
YLGSGCRFETSYLDATFPVS | 0.387 ± 1
IVTKGGLNNVCAVYLCYVGS | 6.46 ± 0.065
TAYWIVYRVKGLLRFFSRLA | 0.011 ± 0.36
SRIFCTWPVSVIYNRADSAQ | 0.838 ± 0.56
SKLTYLTMPSVGEIHFWNPM | 3.44 ± 0.18
LGQEL | 0.416 ± 0.39
VFLSADDVSGPRVDAVSGYS | 0.713 ± 0.5
KSQTRDIFRGDVMC | -0.991 ± 0.71

Substance | amyloid nucleation score
ILWPGWDYTKKIVFSCLMVI | -0.613 ± 0.29
AFCSAAVQAEICEWCNSIYA | -0.431 ± 0.64
WFWYIYM | 1.54 ± 0.19
GVVLGYRCLNMGLKALWSYV | -0.248 ± 0.48
LKCFRLS | 0.327 ± 0.55
WVNCLFIYWFCFDALPIIVE | -0.616 ± 0.4
HSTLFGSKFWGKTQHNFDS | -0.151 ± 1.1
VNVKSVRYRKMSLGVYLVDW | 0.261 ± 0.68
YRFFCCVGHITSFVFLVGNV | 5.25 ± 0.054
YQWIFIHLPAVLSVGMEIRY | -0.672 ± 0.49
AWMGLKNVN | 1.59 ± 0.69
LCSIN | -0.876 ± 0.99
DIRMVDWVRNRVQHVADGK | -0.892 ± 0.7
VVCVLRVVDVMFASRS | 0.694 ± 1.2
GFMIICN | -0.405 ± 0.88
LLVNFSTSRLSLYMFIMIFS | -0.779 ± 0.39
MEFNMWYLFGDLLVTLDWPK | 0.044 ± 0.45
LCGHF | 4.35 ± 0.051
LEMDRICMMLSDSRFKLTLV | -0.025 ± 0.21
RYIPARGVNGGYSVVVRHLG | -0.436 ± 0.38
TSTRRHYRVFARAQQEQNSP | 0.869 ± 0.49
MVQAPLTSQPYNNGMVRQK | -0.055 ± 0.5
ALHVGLNSFPGMSRYV | 0.212 ± 0.89

Substance | amyloid nucleation score
TYSEVRGYLLSRFAEVIDS | inactive
AELSITASTNMESNLVNSIR | -1.69 ± 2.7
SWGTGVIPMVRNSLRECTEL | -0.388 ± 0.98
CLHFFTQTTVWCKHVSSQKV | 0.21 ± 0.48
HGHENVDWQKITDIGGRENC | -0.715 ± 1.9
YESRCGWASRNFSLSENQNS | inactive
MKDVILRTWYLRQGEGWGAS | 0.026 ± 0.4
LNTCLFISDTAVFIMASYMV | 3.06 ± 0.45
SRKCGDVCSKDGRPVCPGTE | 1.67 ± 0.15
LVEVNWI | -0.412 ± 0.47
TYEPLTLMNGVLSVRSGPGI | -0.508 ± 1
FNSRTAGCRLSTQMFSRKQT | 0.402 ± 0.92
HVHNYNFIFAVWIHP | 5.87 ± 0.062
RFLVFPRFCCTRNKPRSETL | 0.616 ± 1.2
QYFPF | -1.26 ± 1.2
GLQEVCWC | -1.67 ± 2.4
LMLTARPVMFVLLCWWFRSS | 0.246 ± 0.43
AGLWYNWRECSFHRVVVGYP | 0.737 ± 0.55
IRIWSSREGFASIVWTCLMG | -0.32 ± 0.54
GLVNLADTGTVVDPSKGWLG | -0.441 ± 0.61
IYVFSALRCTGTEVWYRLVT | -1.2 ± 1.4
SVDVTRIIMIVVCRFKMWEL | 0.736 ± 0.32
WLEYYYCMLHDELIS | 0.109 ± 0.29
